{
  "source": "patent US20200340016",
  "assay_in_all_cases": "cell_activity",
  "key": {"[1]": {"test_system": "ZFN pair 30035 / 30054 ELD_KKR_K525P K525P (FokI, both ZFNs) (artificial)"}, "[2]": {"test_system": "ZFN pair 30035 / 30054 ELD_KKR_R416E R416E (FokI, both ZFNs) (artificial)"}, "[3]": {"test_system": "ZFN pair 30035 / 30054 ELD_KKR_Q481E Q481E (FokI, both ZFNs) (artificial)"}, "[4]": {"test_system": "ZFN pair 30035 / 30054 ELD_KKR_K525A K525A (FokI, both ZFNs) (artificial)"}, "[5]": {"test_system": "ZFN pair 30035 / 30054 (AAVS1) (artificial)"}, "[6]": {"test_system": "ZFN pair 30035 / 30054 ELD_KKR_I479T I479T (FokI, both ZFNs) (artificial)"}, "[7]": {"test_system": "ZFN pair 30035 / 30054 ELD_KKR_R416D R416D (FokI, both ZFNs) (artificial)"}, "[8]": {"test_system": "ZFN pair 52742-F1RQ;F3RQ;F5RQ / 52774 R(-5)Q in F1, F3 and F5 of 52742 (artificial)", "details": "6 ug dose"}, "[9]": {"test_system": "ZFN pair 52742-ELD / 52774-KKR K387S K387S (FokI of 52774) (artificial)", "details": "400 ng mRNA"}, "[10]": {"test_system": "ZFN pair 52742-ELD / 52774-KKR K525S K525S (FokI of 52774) (artificial)", "details": "400 ng mRNA"}, "[11]": {"test_system": "ZFN pair 52742-ELD / 52774-KKR R416S R416S (FokI of 52774) (artificial)", "details": "400 ng mRNA"}, "[12]": {"test_system": "ZFN pair SBS52742-ELD / SBS52774-KKR (TRAC) (artificial)"}, "[13]": {"test_system": "ZFN pair 52742-ELD R447S / 52774-KKR R447S (FokI of 52742) (artificial)", "details": "400 ng mRNA"}, "[14]": {"test_system": "ZFN pair 52742-ELD R422S / 52774-KKR R422S (FokI of 52742) (artificial)", "details": "400 ng mRNA"}, "[15]": {"test_system": "ZFN pair SBS51857-ELD / SBS51949-KKR (BCL11A) (artificial)"}, "[16]": {"test_system": "ZFN pair SBS51857-ELD / SBS51949-KKR R416S R416S (FokI of 51949) (artificial)"}, "[17]": {"test_system": "ZFN pair SBS63014 / SBS65527 (3x R-5Q / 5x R-5Q + FokI R416S) three and five finger R(-5)Q; FokI R416S in 65527 (artificial)", "details": "60 ug dose; no evidence of cleavage"}, "[18]": {"test_system": "ZFN pair SBS51857-ELD / SBS51949-KKR K448S K448S (FokI of 51949) (artificial)", "details": "60 ug/mL each mRNA"}, "[19]": {"test_system": "ZFN pair SBS51857-ELD / SBS51949-KKR R447S R447S (FokI of 51949) (artificial)", "details": "CD34+ cells, near background"}, "[20]": {"test_system": "ZFN pair SBS51857-ELD / SBS51949-KKR K525S K525S (FokI of 51949) (artificial)", "details": "60 ug/mL each mRNA"}, "[21]": {"test_system": "ZFN pair SBS63014 / SBS65526 (3x R-5Q / 4x R-5Q + FokI R416S) three and four finger R(-5)Q; FokI R416S in 65526 (artificial)", "details": "60 ug dose"}, "[22]": {"test_system": "ZFN pair SBS63014 / SBS65721 (3x R-5Q / 3x R-5Q + FokI R416S) three finger R(-5)Q in each ZFN; FokI R416S in 65721 (artificial)", "details": "60 ug dose"}, "[23]": {"details": "CD34+ cells, 2 ug mRNA each ZFN"}},
  "data": [
    {"substance": "AAVS1 intended target", "values": [
      {"measurement": "activity", "setting": "[1]", "value": 0.01, "unit": "% indels"},
      {"measurement": "activity", "setting": "[2]", "value": 91.1, "unit": "% indels"},
      {"measurement": "activity", "setting": "[3]", "value": 69.9, "unit": "% indels"},
      {"measurement": "activity", "setting": "[4]", "value": 73.8, "unit": "% indels"},
      {"measurement": "activity", "setting": "[5]", "value": 57.8, "unit": "% indels"},
      {"measurement": "activity", "setting": "[6]", "value": 52.5, "unit": "% indels"},
      {"measurement": "activity", "setting": "[7]", "value": 70.6, "unit": "% indels"}
    ]},
    {"substance": "CCATATGCAGAAAACAGAAACTGTACCCCTTCCTTACACC (double strand) [off-target XSKWTVWD (OT16)]", "values": [
      {"measurement": "activity", "setting": "[8]; parent 19.16", "value": 1.43, "unit": "% indels"},
      {"measurement": "activity", "setting": "[9]", "value": 3.12, "unit": "% indels"},
      {"measurement": "activity", "setting": "[10]", "value": 0.96, "unit": "% indels"},
      {"measurement": "activity", "setting": "[11]", "value": 0.74, "unit": "% indels"},
      {"measurement": "activity", "setting": "[12]; 400 ng mRNA each ZFN", "value": 7.39, "unit": "% indels"},
      {"measurement": "activity", "setting": "[13]", "value": 0.32, "unit": "% indels"},
      {"measurement": "activity", "setting": "[14]", "value": 1.18, "unit": "% indels"}
    ]},
    {"substance": "CCGGAGAGAAGGCTCCGGTTCAGCACTGAGATCAGGACGG (double strand) [off-target KXWACMTR (OT3)]", "values": [
      {"measurement": "activity", "setting": "[8]; parent 1.59", "value": 0.19, "unit": "% indels"},
      {"measurement": "activity", "setting": "[12]; 6 ug dose", "value": 1.59, "unit": "% indels"}
    ]},
    {"substance": "CCTACCCCCACCACCTCACCTTCCCTCAGCCTTGTGTTTCAGCCCCAGTTAGCTGCCCTTAGTTGCTGATGTATTG (double strand) [off-target GJZEIYTO (OT2)]", "values": [
      {"measurement": "activity", "setting": "[15]; 60 ug/mL each mRNA", "value": 2.81, "unit": "% indels"},
      {"measurement": "activity", "setting": "[16]; 60 ug/mL each mRNA", "value": 0.31, "unit": "% indels"}
    ]},
    {"substance": "CTTCCTGCGGGGTTTTGTGCAAATAACCCATGCTCGGGAGCGAGGCCCTGGGAAGGAGTATCTCGCTTCTTTGGGT (double strand) [off-target NIFMAEVG (OT1)]", "values": [
      {"measurement": "activity", "setting": "[17]", "value": 0.03, "unit": "% indels"},
      {"measurement": "activity", "setting": "[18]; parent 21.96", "value": 8.9, "unit": "% indels"},
      {"measurement": "activity", "setting": "[19]", "value": 0.05, "unit": "% indels"},
      {"measurement": "activity", "setting": "[20]; parent 21.96", "value": 0.89, "unit": "% indels"},
      {"measurement": "activity", "setting": "[15]; [23]", "value": 9.04, "unit": "% indels"},
      {"measurement": "activity", "setting": "[21]", "value": 0.17, "unit": "% indels"},
      {"measurement": "activity", "setting": "[22]; parent 28.0", "value": 0.55, "unit": "% indels"},
      {"measurement": "activity", "setting": "[16]; [23]", "value": 0.75, "unit": "% indels"}
    ]},
    {"substance": "GACTCATTCATCCACTCATTCTGAGCACTTGCTGCACACTAGGCCCTGGGCTGGGGCTTCAGCCCAGGAGTTCACT (double strand) [off-target ZJCRPAXW (OT4)]", "values": [
      {"measurement": "activity", "setting": "[15]; 60 ug/mL each mRNA", "value": 1.12, "unit": "% indels"},
      {"measurement": "activity", "setting": "[16]; 60 ug/mL each mRNA", "value": 0.65, "unit": "% indels"}
    ]},
    {"substance": "TCAGTGATTGGGTTCCGAATCCTCCTCCTGAAAGTGGCCG (double strand) [TRAC intended target JBSCKVMP]", "values": [
      {"measurement": "activity", "setting": "[8]; parent 62.59", "value": 70, "unit": "% indels"},
      {"measurement": "activity", "setting": "[9]", "value": 89.1, "unit": "% indels"},
      {"measurement": "activity", "setting": "[10]", "value": 88.3, "unit": "% indels"},
      {"measurement": "activity", "setting": "[11]", "value": 87.1, "unit": "% indels"},
      {"measurement": "activity", "setting": "[12]; 400 ng mRNA each ZFN", "value": 90.7, "unit": "% indels"},
      {"measurement": "activity", "setting": "[13]", "value": 70.3, "unit": "% indels"},
      {"measurement": "activity", "setting": "[14]", "value": 89, "unit": "% indels"}
    ]},
    {"substance": "TCCTCCATGCTCAGAAAGCCTTTCTTGGAGCCAGGCACACAGGAAATGTTAGCTAGTTAGCATTGGCTCTAATACT (double strand) [off-target PEVYOHIU (OT3)]", "values": [
      {"measurement": "activity", "setting": "[17]", "value": 0.02, "unit": "% indels"},
      {"measurement": "activity", "setting": "[18]", "value": 4.4, "unit": "% indels"},
      {"measurement": "activity", "setting": "[19]", "value": 0.03, "unit": "% indels"},
      {"measurement": "activity", "setting": "[20]", "value": 0.13, "unit": "% indels"},
      {"measurement": "activity", "setting": "[15]; [23]", "value": 0.65, "unit": "% indels"},
      {"measurement": "activity", "setting": "[21]; no evidence of cleavage", "value": 0.02, "unit": "% indels"},
      {"measurement": "activity", "setting": "[22]; parent 4.77", "value": 0.04, "unit": "% indels"},
      {"measurement": "activity", "setting": "[16]; [23]", "value": 0.08, "unit": "% indels"}
    ]},
    {"substance": "TGGCCCTTTGCAGAAAAGGTTGTTGAACCCTACCGTAAAC (double strand) [off-target XVFENVRX (OT11)]", "values": [
      {"measurement": "activity", "setting": "[8]; parent 4.32", "value": 0.47, "unit": "% indels"},
      {"measurement": "activity", "setting": "[9]", "value": 3.27, "unit": "% indels"},
      {"measurement": "activity", "setting": "[10]", "value": 0.79, "unit": "% indels"},
      {"measurement": "activity", "setting": "[11]", "value": 0.93, "unit": "% indels"},
      {"measurement": "activity", "setting": "[12]; 400 ng mRNA each ZFN", "value": 5.82, "unit": "% indels"},
      {"measurement": "activity", "setting": "[13]", "value": 0.14, "unit": "% indels"},
      {"measurement": "activity", "setting": "[14]", "value": 1.09, "unit": "% indels"}
    ]}
  ]
}
